Reference: publication PMC10920880, “RNA compaction and iterative scanning for small RNA targets by the Hfq chaperone”

B1: (AAC)4-S6-N35-S6 tandem mRNA on DNA tether (mixed)
RNA: GGACUCUAUCGAGUCCAACAACAACAACAGACCUCUCUACCAUCACCUAAACUUUACUCUACCAUCACCAGACCUCGCGCCCAGGACGACACACUUUGGACAGGACACACAGGACACAGG
DNA: CCTGTGTCCTGTGTGTCCTGTCCAAAGTGTGTCGTCC
B2: (AAC)6-Cy5-N35-S6 mRNA on DNA tether (mixed)
RNA: GGACUCUAUCGAGUCCAACAACAACAACAACAACCCCUGCAUCACCUAAACUUUACUCUACCAUCACCAGACCUCGCGCCCAGGACGACACACUUUGGACAGGACACACAGGACACAGG
DNA: CCTGTGTCCTGTGTGTCCTGTCCAAAGTGTGTCGTCC
modifications: internal Cy5 after nt 35

Tests used:
Hfq:R16A (rim mutant) [1] = biological target: T1, Hfq:R16A (rim mutant) (Escherichia coli K12, UniProt P0A6X3 1-102, R16A); experiment: smFRET; sRNA (N13)-Hfq; half as much time on distant site as WT; smFRET: 10 mM Tris-HCl pH 7.5, 50 mM NaCl, 50 mM KCl, 4 mM Trolox, 0.01% Nikkol, 0.8% glucose, RNasin, oxygen scavenger; EMSA: 1x TNK, 5% glycerol, 15 min RT, native 8% PAGE 1x TBE 4 C; conditions: protein: recombinant; tags: none (untagged); chain copies: 6; label: tether 5' biotin, 3' Cy5; RNA 3' extension paired to DNA tether; 5' hairpin
Hfq:R16A (rim mutant) [2] = biological target: T1, Hfq:R16A (rim mutant); experiment: smFRET; 5 nM R16A, less compaction E~0.43; smFRET: 10 mM Tris-HCl pH 7.5, 50 mM NaCl, 50 mM KCl, 4 mM Trolox, 0.01% Nikkol, 0.8% glucose, RNasin, oxygen scavenger; EMSA: 1x TNK, 5% glycerol, 15 min RT, native 8% PAGE 1x TBE 4 C; conditions: protein: recombinant; tags: none (untagged); chain copies: 6; label: internal Cy5; tether 5' biotin, 3' Cy3 (unlabeled tether for sRNA assays); RNA 3' extension paired to DNA tether; 5' hairpin
[3] = biological target: Hfq:TM (triple rim mutant) (Escherichia coli K12, UniProt P0A6X3 1-102, R16A;R17A;R19D); experiment: smFRET; 5 nM TM, less compaction E~0.37; smFRET: 10 mM Tris-HCl pH 7.5, 50 mM NaCl, 50 mM KCl, 4 mM Trolox, 0.01% Nikkol, 0.8% glucose, RNasin, oxygen scavenger; EMSA: 1x TNK, 5% glycerol, 15 min RT, native 8% PAGE 1x TBE 4 C; conditions: protein: recombinant; tags: none (untagged); chain copies: 6; label: internal Cy5; tether 5' biotin, 3' Cy3 (unlabeled tether for sRNA assays); RNA 3' extension paired to DNA tether; 5' hairpin
[4] = biological target: Hfq:Y25D (distal face mutant) (Escherichia coli K12, UniProt P0A6X3 1-102, Y25D); experiment: smFRET; 5 nM Y25D, compaction E~0.75; smFRET: 10 mM Tris-HCl pH 7.5, 50 mM NaCl, 50 mM KCl, 4 mM Trolox, 0.01% Nikkol, 0.8% glucose, RNasin, oxygen scavenger; EMSA: 1x TNK, 5% glycerol, 15 min RT, native 8% PAGE 1x TBE 4 C; conditions: protein: recombinant; tags: none (untagged); chain copies: 6; label: internal Cy5; tether 5' biotin, 3' Cy3 (unlabeled tether for sRNA assays); RNA 3' extension paired to DNA tether; 5' hairpin

| Binder | binding result (Hfq:R16A (rim mutant) [1]) | binding result (Hfq:R16A (rim mutant) [2]) | binding result [3] | binding result [4] |
| --- | --- | --- | --- | --- |
| B1 | binds | – | – | – |
| B2 | – | binds | binds | binds |
